# From US7963935B2, “Microprojection array having a beneficial agent containing coating” (Alza Corporation, priority 2001, dated 2011)
# Structures can show the parent of a compound that is named as a salt.
# How the values were obtained:
# [1] = hGH delivery studies with tip-coated microprojection arrays; plasma hGH by ELISA, compared with subcutaneous injection; format: in vivo, hairless guinea pigs; details: for Cmax / tmax: plasma hGH
# Experimental: An aqueous solution containing 20 wt % human growth hormone (20 wt % hGH), and 20 wt % sucrose was prepared. […] The tips of the microprojections were coated with this solution by passing the arrays over a rotating drum carrying the hGH/sucrose solution using the method and apparatus disclosed in U.S. Patent Application Ser. No. 60/276,762 filed Mar. 16, 2001. Four successive coatings were performed on each microprojection array at 4° C. The amount of protein coated on the arrays was evaluated by total protein assay. An average of 9.5±0.9 μg of hGH was coated per array. […] On the microprojection itself, the coating was found unevenly distributed. Most of the solid coating appeared to be located in caps centered on the geometric center of the faces of the coated area of the microprojections. […] The maximum measured thickness of the coating was about 4 μm while the average calculated thickness over the entire coated area was only about 1.7 μm. Overall, the coating presented good aerodynamics and good adhesion, consistent with minimum effect on penetration of the microprojections into the skin and minimal removal of the drug from the microprojection during penetration.
# Some of the hGH tip-coated arrays were subsequently used for drug delivery studies in hairless guinea pigs. The application of the coated microprojection arrays was done using an impact applicator (total energy=0.4 Joules, delivered in less than 10 milliseconds) using a spring-driven impact applicator or the type disclosed in U.S. Patent Application Ser. No. 60/240,307 filed Oct. 13, 2000. The arrays were left on the skin after application for 5 seconds, 5 minutes, or 1 hour, in groups of three animals. Blood was collected at time intervals for plasma hGH determination by ELISA. […] On average, 5 μg of hGH was delivered in each animal, which accounts for approximately 50% of the coated dose. […] Finally, the 5 minute wearing time group had the smallest CV (30%), which is even smaller than that observed following subcutaneous injection (50%).
# [2] = Dry film/coating on titanium foil: inspection and redissolution/rehydration in water; format: physicochemical
# Experimental: In order to test the ability of aqueous albumin solutions to form solid coatings on titanium microprojections, a coated microprojection array was prepared in the following manner. […] To aliquots of these solutions, fluorescein, a marker added for subsequent visualization of the dried coating, was added at a final concentration of 1 millimolar. A 1-microliter drop of this solution was spread on titanium foil having an area of about one centimeter square. The solution was allowed to dry at room temperature for about 1 hour.
# A coated microprojection array was prepared in the following manner. […] To this suspension, fluorescein, a marker added for subsequent visualization, was added at a final concentration of 1 millimolar. A 1 microliter drop of this suspension was spread on titanium foil having an area of 1 square centimeter and allowed to dry at room temperature for about an hour.
# To 50 microliters of this solution, 50 microliters of a 40 percent by weight aqueous solution of lidocaine HCl was added. A control solution containing no albumin was also prepared. 1-microliter drops of these solutions were spread on titanium foil having an area of approximately 1 square centimeter. The solutions were allowed to air dry at room temperature for about 1 hour.
molecule,measurement,setting,value
human growth hormone [hGH],hGH delivery versus wearing time,"[1]; arrays left on skin 5 seconds, 5 minutes or 1 hour",the same at all wearing times
same,amount of hGH delivered in each animal (average),"[1]; hGH/sucrose tip-coated microprojection array, impact applicator, hairless guinea pigs, all wearing times",5 µg
same,Cmax,[1]; microprojection administration,13 ng/mL
same,tmax,[1]; microprojection administration,30 min
same,hGH delivered as fraction of the coated dose,"[1]; microprojection array, hairless guinea pigs",approximately 50%
same,fraction of the coated dose delivered into the skin,"[1]; microprojection array, assuming bioavailability similar to subcutaneous (65%)",about 80%
same,bioavailability,[1]; subcutaneous administration,65%
same,Cmax,[1]; subcutaneous injection,5 ng/mL
same,tmax,[1]; subcutaneous injection,60 min
CCN(CC)CC(=O)Nc1c(C)cccc1C [lidocaine HCl],"nature of dried film (hygroscopicity, suitability for storage)",[2]; control solution without albumin,very hygroscopic film unsuitable for subsequent storage
Cyclosporin A [CSA],release of drug particles from dry albumin coating following rehydration,"[2]; CSA suspension in 20 wt% human albumin, dried on titanium foil, particles 1 to 25 micrometers",freed readily following rehydration
